From the supplement of paper PMC12042874
± gives the uncertainty stated by the source.

Experiment: amyloid nucleation score (Sup35N fusion, yeast selection) (log enrichment); library NNK3; higher = more nucleation; inactive = no reads after selection
Procedure, shortened: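 Growth for 7 days at 30°C on medium lacking adenine and uracil followed a 24-hour induction with 100 μM copper sulfate of psi-negative yeast expressing peptides of 20 random codons fused to Sup35N. Input and output plasmid inserts were sequenced with Illumina, and sequences with under 100 input reads were excluded. Nucleation score is the DiMSum log enrichment of output over input reads, centred on the mode score of non-aggregating sequences.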

| Substance | amyloid nucleation score |
| --- | --- |
| PTIYRMFGVGQMVMN | inactive |
| PTLILWDFCCLVLVEAFYGC | inactive |
| PTNDAYVVVMD | inactive |
| PTTFNVFLGLWCVGTYCTWL | 0.997 ± 0.24 |
| PVLSIYWTGPLKFNYIMMGL | inactive |
| PVNEFYYLFCKRVYPCALQI | 0.295 ± 0.53 |
| PVRSPAACGDRLSVRVANME | inactive |
| PVTIFKETCWP | inactive |
| PVVRQRNALILCLSHMSCLE | 2.15 ± 0.063 |
| PVWFTYQHHCWVKLICV | inactive |
| PWDDYTAQIGLYSFPPWLYV | inactive |
| PWDQDGGSTYSKGGPSNWEF | inactive |
| PYPESVFQWFEYIPFYCSVR | inactive |
| PYSISRLTSYDPFGHVPGTR | inactive |
| PYSLPSP | inactive |
| PYTWAMHLNLLITTDR | -0.032 ± 0.54 |
| QALTFIMWETDTSHGTCLNG | 1.46 ± 0.07 |
| QDPMLTCGGRWDFTCAGEVP | inactive |
| QEGWCWSYLVAGGWV | inactive |
| QELMEKDGRASKDQAWASIV | inactive |
| QFDFVLPVGYVFGDGYVLWV | inactive |
| QFLLGSWYRLLRSGTVNSPS | inactive |
| QFLLGWNPNTSDLVLTFVQQ | 1.15 ± 0.14 |

| Substance | amyloid nucleation score |
| --- | --- |
| QFPSSQN | inactive |
| QFTHTNIFTND | inactive |
| QGGGNIDSSVVTDSSDVVYS | inactive |
| QGGGVCPCPKMVSFQMMYVI | inactive |
| QGNAVHRDASSGWMNSAFDR | inactive |
| QHSLGG | inactive |
| QIGFCS | inactive |
| QIIYISSLFTYDSYYKFRLH | inactive |
| QILVLHIR | 1.71 ± 0.079 |
| QINMYMVNSRWVTFGIGMLS | 2.37 ± 0.055 |
| QIVRLTSNIPRTAPSWSFH | inactive |
| QIVYSLILGDPPAASVWEKS | inactive |
| QKMFVQDLILVLPVISRLV | inactive |
| QLALPHKPHWGNWL | inactive |
| QLIWYTACKASIDVNRHGSG | inactive |
| QLKHWTEIKQVLVVSREWVH | -0.395 ± 1.3 |
| QLLFPGLWESATRILCENFM | inactive |
| QLLHDGNLNVGIFMRYSQGR | 1.29 ± 0.093 |
| QLLSLKWYYVTRILCARYAD | inactive |
| QLLSLVKISNKLTVI | inactive |
| QMVIHTVLGLKSLCVMFPSR | 1.04 ± 0.088 |
| QNCVTDMSKNLGIVREFSCS | inactive |
| QNECLGHQNWLNVVLKVAMM | inactive |

| Substance | amyloid nucleation score |
| --- | --- |
| QNNTLGVSLVTFRGLVE | inactive |
| QPAFPWTYVFLLYHGW | inactive |
| QPVICNIRSSRCV | inactive |
| QPYIVFISGFVSSLWESVRK | inactive |
| QQFVTFVIFKYTVSVAMGAG | -0.478 ± 0.88 |
| QQWWLLFSLC | inactive |
| QRDTSGEYGIVWYYVFNRTG | inactive |
| QRITDKMSYADSLLRSST | inactive |
| QRLIRMSFSMAHMTSNFVMV | inactive |
| QRSTKPW | -0.586 ± 1.9 |
| QSASFRNGFKLLLMTS | inactive |
| QSCCF | inactive |
| QSGTLLGLLHQANYLGYAF | inactive |
| QSLLDLMSFLMCV | inactive |
| QSRPKMMFLDSGCFWGFCVR | inactive |
| QSSIVWCVSFIKSRCDFSIC | inactive |
| QSVSVGLCCWAMPVK | inactive |
| QTHSMGDSECYL | inactive |
| QTLNERTWTGYDIHVRHVRR | inactive |
| QTMKWSIVHGQKTGGSWVDM | inactive |
| QTQKLFQYI | inactive |
| QTRVTVYSWVPRDYFSQHED | inactive |
| QTSST | inactive |

| Substance | amyloid nucleation score |
| --- | --- |
| QTSSTNPMVASKPQAQRACK | inactive |
| QTVKVISPYPTMLTLCD | inactive |
| QTVNWSDDL | inactive |
| QTYMTLHETVRLWARMLSC | inactive |
| QVFLSKVCMLFDVVARVVKR | inactive |
| QVGQESDSCLSSIRLCFKYR | 0.163 ± 0.24 |
| QVKLGRTLTSGQGFTQLHSV | -0.852 ± 2.5 |
| QVLLCNAPFRQLYVACFYCF | 0.422 ± 0.38 |
| QVLWTGEMDSMICWA | inactive |
| QWGGSNIVRYRNFIVGLFVR | inactive |
| QWVVEHRFWLVYNGEHRNSY | 0.762 ± 0.15 |
| QYFSWKIRSGNLVYAF | inactive |
| QYICHDNCRCCQRNEKFRRK | inactive |
| QYRRRVYDYVGCTRLWKNLW | -0.682 ± 0.93 |
| RAALPMVFHRFLTFMDAFLV | 1.83 ± 0.075 |
| RAEMMSYTLVQIIGYISIVE | inactive |
| RAFFDC | -0.47 ± 0.66 |
| RARALLAHLKVPSKPVFTAV | inactive |
| RAYSLLVRQIVRCNESG | inactive |
| RAYSSWSLSSCRCNSDWTVG | inactive |
| RAYSYPSDYWW | -0.122 ± 0.43 |
| RCDVRFSWLIPSGLE | 1.56 ± 0.086 |
| RCFIDLCFLDIIISFRYY | inactive |

| Substance | amyloid nucleation score |
| --- | --- |
| RCGILW | inactive |
| RCGTLYRGG | inactive |
| RCGYHFHQVAFFTKDVKVVE | inactive |
| RCLEEP | 0.145 ± 0.34 |
| RCLMDMFHILPKKSGVFSIT | inactive |
| RCNKRTEGVSE | inactive |
| RCNLTCLGMIDVTIS | inactive |
| RCSYLMRLYISSFMY | inactive |
| RCVGEACVNGGCLITITYVG | 1.16 ± 0.11 |
| RDCDDQ | inactive |
| RDDGEALVTSARRVQTSYPA | -0.145 ± 0.93 |
| RDDNAKNVGSPRAAHTRALR | inactive |
| RDEVLNSHFIVGSRMRSNVA | 1.31 ± 0.14 |
| RDFATTNGRDNIELHSQGNY | inactive |
| RDGSQGEFWVLALARLGGTS | 0.311 ± 0.48 |
| RDIMGLDLFQARNTTRSNYK | inactive |
| RDIQYLCKYLRSMMHRGQAH | inactive |
| RDNLLGLTGNTTGDFTPGTV | inactive |
| RDPFITFWYMRIYTTGRGCV | inactive |
| RDRWI | inactive |
| RDVMWVNHVYCMLEFWTWVV | inactive |
| RDYILKT | inactive |
| RDYKAHYLRCLYLWTMSLP | inactive |

| Substance | amyloid nucleation score |
| --- | --- |
| RECSNSVVLFLDVTHRVVRT | inactive |
| REGCHPFELSDPDGDHLVRF | inactive |
| REMKWRLELLVGGKYRYHQL | inactive |
| REVELSNVYYNDVSACLHKK | -0.378 ± 1.4 |
| REVRTGLNLIPRRIVSNHTF | inactive |
| REVYLMRSEPWRLLFDGKYR | inactive |
| RFDDRG | inactive |
| RFIDWQVCD | inactive |
| RFIWIGIWKEGEGLADYSEK | inactive |
| RFKYPPTFKMNSSSFFQSLL | inactive |
| RFLLDRACLWLRGVI | inactive |
| RFLLYPAPWRVFAIPYSEHL | inactive |
| RFLSMSTLKRDS | inactive |
| RFMWSLGSTLRWKAWADVTG | inactive |
| RFRNYGLSGR | -0.38 ± 0.89 |
| RFSMNASYFYYVIMFSDCYS | inactive |
| RFSNAMLMCLVTNVSC | 0.451 ± 0.61 |
| RFWKTTPNGQIRVSSVMRCM | inactive |
| RFYNDW | inactive |
| RFYSARGGKRARIHVRVKWD | -0.446 ± 0.55 |
| RGATC | inactive |
| RGCKKLYRIKANVMYVSTVN | inactive |
| RGITMCMSVL | inactive |

| Substance | amyloid nucleation score |
| --- | --- |
| RGLWLEQRAVNNYVGR | -0.291 ± 0.46 |
| RGMISVMPSVIGPAL | inactive |
| RHDCIYRKV | inactive |
| RHGFALRLVHSSL | inactive |
| RHGLAWTYVKKSKMRTAAGR | inactive |
| RHLLLTGKSWCVQACPGRTV | -0.965 ± 1.1 |
| RIIIVYR | inactive |
| RILLFMHPMSICMSP | inactive |
| RILPYSGSALLISTGFYHR | inactive |
| RIMWSRRVENVL | inactive |
| RIPLWCFS | inactive |
| RIPSGFTL | inactive |
| RIVEGMYLYVLS | inactive |
| RKARRGCYVFLPKFSNVEFH | 1.03 ± 0.12 |
| RKCRCYLTSFKDPALYLT | inactive |
| RKERGSVFGSIWQFSCIRR | 0.731 ± 0.25 |
| RKFAGYQSSNASGSPVQGMS | inactive |
| RKGHDVVAVYWADLHSSGIV | inactive |
| RKLNNTSTSHGICVGAWITN | inactive |
| RKMFWDGF | inactive |
| RKNAVCICSNL | inactive |
| RKSIGSLG | inactive |
